Experimental data taken from patent US20220098305A1 (Hoffmann-La Roche, published 2022).

T1: human ICOS (human, UniProt Q9Y6W8 21-199)
T1 construct: The cell that carries it is named under assay; also called huICOS; CD278
T1 sequence: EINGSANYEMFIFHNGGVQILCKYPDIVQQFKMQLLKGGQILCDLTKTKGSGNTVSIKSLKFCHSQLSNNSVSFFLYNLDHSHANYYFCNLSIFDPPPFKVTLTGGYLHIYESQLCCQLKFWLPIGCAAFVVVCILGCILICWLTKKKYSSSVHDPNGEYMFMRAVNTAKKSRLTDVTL

B1: Molecule 18 (rbIgG of 1138) (antibody, V domains shown)
VH: QSLEESGGDLVKPGASLTLTCTASGFDLSSYYYMCWVRQAPGKGLEWIACIYADIYGGTTHYASWAKGRFTISKTSSTTVTLQMTSLTAADTATYFCAREDGSRYGGSGYYNLWGPGTLVTVSS
VL: ALVMTQTPSSVSAAVGGTVTINCQASQNIYSNLAWYQQKPGQPPKLLIYAASYLTSGVSSRFKGSGAGTQFTLTISGVECADAATYYCQQGHTTDNIDNAFGGGTEVVVKG
notes: Rabbit IgG format; also called ICOS (1138); clone 1138
B2: Molecule 14 (muIgG of 009) (antibody, V domains shown)
VH: EVRLDETGGGVVQPGRPMELSCVASGFTFSDYWMNWVRQSPEKGLEWVAQIRNKPYNYETYYSDSVKGRFTISRDDSKSRVYLQMNNLRAEDMGIYYCTWPRLRSSDWHFDVWGAGTTVTVSS
VL: AIQMTQSPSSLSASLGGEVTITCKASQDINKNIAWYQHKPGRGPRLLIWYTSTLQTGIPSRFSGSGSGRDYSFTISNLEPEDFATYYCLQFDNLYTFGSGTKLEIR
notes: Mouse IgG purified from hybridoma; also called ICOS (009); clone 009
B3: Molecule 40, bispecific 2+1 anti-ICOS (009)/anti-FAP (4B9) huIgG1 P329GLALA kih (bispecific antibody)
heavy 1: EVRLDETGGGVVQPGRPMELSCVASGFTFSDYWMNWVRQSPEKGLEWVAQIRNKPYNYETYYSDSVKGRFTISRDDSKSRVYLQMNNLRAEDMGIYYCTWPRLRSSDWHFDVWGAGTTVTVSSASTKGPSVFPLAPSSKSTSGGTAALGCLVKDYFPEPVTVSWNSGALTSGVHTFPAVLQSSGLYSLSSVVTVPSSSLGTQTYICNVNHKPSNTKVDKKVEPKSCDKTHTCPPCPAPEAAGGPSVFLFPPKPKDTLMISRTPEVTCVVVDVSHEDPEVKFNWYVDGVEVHNAKTKPREEQYNSTYRVVSVLTVLHQDWLNGKEYKCKVSNKALGAPIEKTISKAKGQPREPQVCTLPPSRDELTKNQVSLSCAVKGFYPSDIAVEWESNGQPENNYKTTPPVLDSDGSFFLVSKLTVDKSRWQQGNVFSCSVMHEALHNHYTQKSLSLSPGGGGGSGGGGSGGGGSGGGGSEIVLTQSPGTLSLSPGERATLSCRASQSVTSSYLAWYQQKPGQAPRLLINVGSRRATGIPDRFSGSGSGTDFTLTISRLEPEDFAVYYCQQGIMLPPTFGQGTKVEIK
heavy 2: not shown
light: AIQMTQSPSSLSASLGGEVTITCKASQDINKNIAWYQHKPGRGPRLLIWYTSTLQTGIPSRFSGSGSGRDYSFTISNLEPEDFATYYCLQFDNLYTFGSGTKLEIRRTVAAPSVFIFPPSDEQLKSGTASVVCLLNNFYPREAKVQWKVDNALQSGNSQESVTEQDSKDSTYSLSSTLTLSKADYEKHKVYACEVTHQGLSSPVTKSFNRGEC

Tests used:
human ICOS [1] = target: T1, human ICOS; experiment: flow cytometry, CHO cells expressing human ICOS
Protocol: (§1) Briefly, suspension cells were harvested, counted, checked for viability and re-suspended at 1 million cells per ml in FACS buffer (PBS with 0.1% BSA). […] The staining was fixed for 20 min at 4° C. in the dark, using 75 μl of 1% PFA in FACS buffer per well.
(§2) Fluorescence was analyzed by FACS using a FACS Fortessa (Software FACS Diva). Binding curves and EC50 values were obtained using GraphPadPrism 7.

human ICOS [2] = target: T1, human ICOS; experiment: flow cytometry on SR cells expressing human ICOS, PE-labelled secondary antibody, MFI
Protocol: as §1
(§3) In addition, binding of the above molecules to human SR cells (ATCC® CRL-2262) was performed as described above apart from the following modifications: SR cells were re-suspended at 2 million cells per ml in FACS buffer (BD).
as §2

[3] = target: T2, recombinant monomeric human ICOS Fc(kih) Avi tag (human, UniProt P0DOX5 223-449 = IgG part, biotin on the Avi tag in the ligand-blocking and the SPR competition assays); experiment: SPR competition on human ICOS Fc(kih); second injection 100 nM; competitor (row): Molecule 14
T2 construct: also called recombinant human ICOS; biotinylated human ICOS Fc(kih)
Protocol: (§4) Immobilization levels up to 600 resonance units (RU) were used. […] Bulk refractive index differences were corrected for by subtracting the response obtained on reference flow cell.
(§5) The SPR experiments were performed on a Biacore T200 at 25° C. with HBS-EP as running buffer (0.01 M HEPES pH 7.4, 0.15 M NaCl, 3 mM EDTA, 0.005% Surfactant P20, Biacore, Freiburg/Germany).

human ICOS [4] = target: T1, human ICOS; experiment: cell-based or functional assay
human ICOS [5] = target: T1, human ICOS; experiment: flow cytometry, MFI(ICOSL+anti-ICOS)/MFI(anti-ICOS only)*100 at 120 nM; competitor ICOSL
Protocol: (§6) Briefly, cells were harvested, counted, checked for viability and re-suspended at 1 million cells per ml in FACS buffer (PBS with 0.1% BSA). […] Cells were washed again twice with cold PBS 0.1% BSA and then re-incubated and fixed for 20 min at 4° C. in the dark, using 75 μl of 1% PFA in FACS buffer per well. Fluorescence was analyzed by FACS using a FACS Fortessa (Software FACS Diva. Data was analyzed using GraphPadPrism 7.

human ICOS [6] = target: T1, human ICOS; experiment: flow cytometry, ICOS+ CHO cells, 120 nM anti-ICOS IgG, no ICOSL
Protocol: as §6

human ICOS [7] = target: T1, human ICOS; experiment: flow cytometry on CHO cells stably expressing human ICOS, PE-labelled secondary antibody, median fluorescence intensity (MFI)
Protocol: as §1, §2

[8] = target: T2, recombinant monomeric human ICOS …; experiment: SPR competition on human ICOS Fc(kih); second injection 100 nM; competitor (row): Molecule 8
Protocol: as §4, §5

human ICOS [9] = target: T1, human ICOS; experiment: flow cytometry, SR cells
Protocol: as §1, §3, §2

[10] = target: T2, recombinant monomeric human ICOS …; experiment: SPR (Biacore T200, 25 C), antibody captured on anti-rabbit Fc, ICOS Fc(kih) 7.5-600 nM as analyte, 1:1 Langmuir fit
Protocol: (§7) All SPR experiments were performed on a Biacore T200 at 25° C. with HBS-EP as running buffer (0.01 M HEPES pH 7.4, 0.15 M NaCl, 3 mM EDTA, 0.005% Surfactant P20, Biacore, Freiburg/Germany).
(§8) Setup 1: Anti-rabbit Fc antibody (Jackson ImmunoResearch, Cambridgeshire/UK) was directly coupled on a CM5 chip at pH 4.5 using the standard amine coupling kit (Biacore, Freiburg/Germany). The immobilization level was approximately 9000 RU. […] The dissociation was monitored for 720 seconds. Bulk refractive index differences were corrected for by subtracting the response obtained on reference flow cell.

[11] = target: T2, recombinant monomeric human ICOS …; experiment: SPR competition on human ICOS Fc(kih); second injection 100 nM; competitor (row): Molecule 20
Protocol: as §4, §5

human ICOS [12] = target: T1, human ICOS; experiment: flow cytometry, ICOS+ CHO cells, 120 nM anti-ICOS IgG pre-bound, then ICOSL (competitor) 120 nM
Protocol: as §6

[13] = target: T2, recombinant monomeric human ICOS …; experiment: SPR competition on human ICOS Fc(kih); second injection 100 nM; competitor (row): Molecule 18
Protocol: as §4, §5

[14] = target: T2, recombinant monomeric human ICOS …; experiment: SPR (Biacore T200, 25 C), antibody captured on anti-mouse IgG, ICOS Fc(kih) 7.5-600 nM as analyte, 1:1 Langmuir fit
Protocol: as §7
as §8, with “2: Anti-mouse IgG” for “1: Anti-rabbit Fc”, “(GE Healthcare, Chicago/US)” for “(Jackson ImmunoResearch, Cambridgeshire/UK)”, “5.0” for “4.5”, “5000” for “9000”

human FAP [15] = target: T3, human FAP (human, UniProt Q12884 1-760); experiment: flow cytometry, NIH/3T3-huFAP clone 19 cells
T3 construct: also called hu FAP

human ICOS [16] = target: T1, human ICOS; experiment: flow cytometry on SR cells expressing human ICOS, geometric MFI
human ICOS [17] = target: T1, human ICOS; experiment: flow cytometry, SR cells; remark: listed apart in the source
human FAP [18] = target: T3, human FAP; experiment: flow cytometry on NIH/3T3-huFAP clone 19 cells, geometric MFI

Binder | EC50 (human ICOS [1]) [pM] | EC50 (read off the curve) (human ICOS [2]) [pM] | EC50 of activation of Jurkat-NFAT reporter cell line (luminescence) (human ICOS [4]) [pM] | Relative Binding (%) (human ICOS [5]) | MFI (A488), IgG only (human ICOS [6]) [MFI] | EC50 (read off the curve) (human ICOS [7]) [pM] | binding of the second injection (0 = no binding; 1 = binding) [8] | EC50 (human ICOS [9]) [pM] | binding of the second injection (0 = no binding; 1 = binding) [11] | MFI (A488), IgG + ICOSL (human ICOS [12]) [MFI] | further results
B1 | 1.92 | ~2000 | 90 | 98.2 | 6320 | ~2000 | 1 | 2.16 | 1 | 6210 | binding of the second injection (0 = no binding; 1 = binding) [3]: 1; Kd [10]: 700 pM; koff [10]: 0.00026 s⁻¹; kon [10]: 400000 M⁻¹ s⁻¹; t1/2 [10]: 0.728 h
B2 | 2.97 | ~1000 | 80 | 97.3 | 7190 | ~3000 | 0 | 1.4 | 0 | 7000 | binding of the second injection (0 = no binding; 1 = binding) [13]: 1; Kd [14]: 2000 pM; koff [14]: 0.00014 s⁻¹; kon [14]: 61000 M⁻¹ s⁻¹; t1/2 [14]: 1.36 h
B3 |  |  |  |  |  |  |  |  |  |  | EC50 (human FAP [15]): 3.85 pM; EC50 (read off the curve) (human ICOS [16]): ~2000 pM; EC50 (human ICOS [17]): 1.74 pM; EC50 (read off the curve) (human FAP [18]): ~4000 pM
